The target of test [1] is T1, Recombinant human LAG-3 ECD-His6 (human, UniProt P18627 23-433).
T1 construct: also called LAG-3-His; recombinant human LAG-3-His
T1 sequence: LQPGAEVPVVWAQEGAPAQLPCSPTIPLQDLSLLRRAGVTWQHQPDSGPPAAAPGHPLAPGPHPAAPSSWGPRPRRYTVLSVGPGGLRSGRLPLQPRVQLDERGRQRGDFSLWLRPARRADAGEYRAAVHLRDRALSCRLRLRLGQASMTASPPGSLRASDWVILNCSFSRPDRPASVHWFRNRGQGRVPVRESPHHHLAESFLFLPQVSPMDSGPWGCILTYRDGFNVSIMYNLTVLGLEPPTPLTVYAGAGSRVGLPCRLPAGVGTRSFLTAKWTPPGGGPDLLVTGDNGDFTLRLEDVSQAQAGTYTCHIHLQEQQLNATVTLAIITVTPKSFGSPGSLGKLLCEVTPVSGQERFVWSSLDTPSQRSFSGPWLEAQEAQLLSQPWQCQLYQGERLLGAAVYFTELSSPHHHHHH
The experiment in a line: SPR Biacore T100, Anova comparison of kd on LAG-3 ECD-His6. As to the method:
(§1) Wild type fucosylated and afucosylated antibodies were compared for their ability to bind to recombinant human LAG-3 ECD with a C-terminal His6 (SEQ ID NO:51) using the Biacore® T100 (GE Healthcare®). Protein A was immobilised on a CM5 chip by primary amine coupling. This surface was then used to capture the humanised antibodies. Recombinant human LAG-3 ECD-His6 was then passed over the captured antibodies at 32, 8, 2, 0.5 and 0.125 nM and regeneration was carried out using 50 mM NaOH. The binding curves were double referenced with buffer injection (i.e. 0 nM) and the data was fitted to the T100 analysis software using the 1:1 model. The run was carried out at 25° C., using HBS-EP as the running buffer.
(§2) In order to investigate the statistical significance of this kinetic data, this experiment was repeated 3 times with the same batch of the four antibodies and the chimeric control. KD, ka and kd parameters were each log (base 10) transformed prior to separate statistical analyses. For each parameter, a mixed model analysis of variance (‘Anova’) was performed on transformed data, including terms for Run (random block effect) and Antibody.
(§3) From the Anova, geometric means were predicted for each antibody, along with statistically plausible ranges (95% confidence intervals) for each mean. Planned comparisons of antibodies were performed within the Anova. […]
For orientation: Surface plasmon resonance follows binding to a sensor surface in real time, without labels.

Test [2] deals with T2, Recombinant cynomolgus macaque LAG-3 ECD-His6 (cynomolgus macaque, UniProt P18627 24-433 (human entry)).
T2 construct: made in house; also called cyno LAG-3
T2 chain: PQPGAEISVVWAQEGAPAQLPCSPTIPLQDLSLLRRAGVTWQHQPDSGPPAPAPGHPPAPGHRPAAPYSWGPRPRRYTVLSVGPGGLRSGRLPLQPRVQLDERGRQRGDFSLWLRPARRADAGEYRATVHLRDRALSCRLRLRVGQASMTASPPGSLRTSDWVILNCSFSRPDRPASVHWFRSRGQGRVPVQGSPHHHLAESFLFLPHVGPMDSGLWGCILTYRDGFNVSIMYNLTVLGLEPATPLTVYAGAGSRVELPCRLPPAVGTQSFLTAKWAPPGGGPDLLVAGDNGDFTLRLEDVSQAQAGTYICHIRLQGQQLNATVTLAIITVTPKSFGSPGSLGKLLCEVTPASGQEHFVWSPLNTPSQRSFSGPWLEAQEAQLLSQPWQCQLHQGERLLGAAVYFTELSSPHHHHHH
The experiment in a line: SPR Biacore T100, antibody captured on protein A, LAG-3 ECD-His6 analyte, 37 C, 1:1 model. As for the experimental part: (§4) The binding cross reactivity of anti-LAG-3 humanised antibodies for both cynomolgus macaque (cyno) and baboon recombinant LAG-3 ECD-His6 (SEQ ID NOs 52 and 53, respectively) was assessed using the Biacore® T100 (GE Healthcare®).
(§5) Protein A was immobilised on a CM5 chip by primary amine coupling. This surface was then used to capture the humanised antibodies. In-house generated recombinant cynomolgus macaque and baboon LAG-3 ECD-His6 were then passed over the captured antibodies and regeneration was carried out using 50 mM NaOH. LAG-3 ECD-His6 was passed over at 16, 4, 1, 0.25 and 0.0625 nM. The binding curves were double referenced with buffer injection (i.e. 0 nM) and the data was fitted to the T100 analysis software using the 1:1 model. The run was carried out at 37° C. using HBS-EP as the running buffer.

Test [3] addresses T3, Recombinant baboon LAG-3 ECD-His6 (baboon, UniProt P18627 24-433 (human entry)).
T3 construct: made in house
T3 chain: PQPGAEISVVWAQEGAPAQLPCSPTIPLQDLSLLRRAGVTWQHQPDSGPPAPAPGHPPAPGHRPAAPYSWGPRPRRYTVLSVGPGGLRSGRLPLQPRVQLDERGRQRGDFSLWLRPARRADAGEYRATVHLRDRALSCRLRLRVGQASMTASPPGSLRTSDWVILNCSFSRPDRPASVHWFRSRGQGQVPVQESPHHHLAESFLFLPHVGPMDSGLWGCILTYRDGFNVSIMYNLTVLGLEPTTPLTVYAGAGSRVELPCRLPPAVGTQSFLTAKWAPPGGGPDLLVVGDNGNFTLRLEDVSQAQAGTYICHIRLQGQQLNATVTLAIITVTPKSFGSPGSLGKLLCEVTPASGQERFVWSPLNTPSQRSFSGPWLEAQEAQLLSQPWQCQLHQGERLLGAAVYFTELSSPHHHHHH
The test is described as above. As for the experimental part: as §4, §5

Test [4] has as its target T1, Recombinant human LAG-3 ECD-His6. The experiment in a line: SPR Biacore T100, Anova comparison of KD on LAG-3 ECD-His6. As to the method:
as §1, §2, §3

The target in test [5] is T4, Human LAG-3 expressed on cells (human, UniProt P18627 23-525).
T4 sequence (looked up): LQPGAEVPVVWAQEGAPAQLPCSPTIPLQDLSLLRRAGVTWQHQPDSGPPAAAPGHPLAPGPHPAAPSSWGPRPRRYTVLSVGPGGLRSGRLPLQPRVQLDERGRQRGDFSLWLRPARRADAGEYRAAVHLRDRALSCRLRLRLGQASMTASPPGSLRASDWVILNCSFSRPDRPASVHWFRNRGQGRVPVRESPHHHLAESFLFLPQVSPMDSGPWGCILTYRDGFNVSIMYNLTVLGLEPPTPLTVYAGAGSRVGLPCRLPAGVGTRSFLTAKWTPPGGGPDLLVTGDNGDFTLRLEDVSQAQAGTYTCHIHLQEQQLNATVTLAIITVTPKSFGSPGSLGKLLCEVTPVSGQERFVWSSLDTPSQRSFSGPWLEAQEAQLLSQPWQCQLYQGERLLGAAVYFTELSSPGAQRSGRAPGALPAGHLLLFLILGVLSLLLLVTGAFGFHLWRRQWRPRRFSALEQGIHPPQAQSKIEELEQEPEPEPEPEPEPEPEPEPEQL
Kind of test: cell-based or functional assay.

The target of test [6] is T1, Recombinant human LAG-3 ECD-His6. The experiment in a line: SPR Biacore T100, antibody captured on protein A, LAG-3 ECD-His6 analyte, 25 C, 1:1 model, geometric mean of 3 runs. As for the experimental part: as §1, §2, §3

Where “and” joins values, the source holds several entries; their conditions need not be identical. Equal values may be shown once.

B1: H5L7BW (antibody, human IgG1, kappa, V domains shown)
VH: QVQLQESGPGLVKPSETLSLTCTVSGFSLTAYGVNWIRQPPGKGLEWIGMIWDDGSTDYDSALKSRVTISVDTSKNQFSLKLSSVTAADTAVYYCAREGDVAFDYWGQGTLVTVSS
VL: DIQMTQSPSSLSASVGDRVTITCKSSQSLLNPSNQKNYLAWYQQKPGKAPKLLVYFASTRDSGVPSRFSGSGSGTDFTLTISSLQPEDFATYYCLQHFGTPPTFGQGTKLEIKR
notes: Afucosylated form of H5L7: plasmids encoding H5L7 expressed in the BioWa Potelligent (FUT8 knock-out CHO) cell line; also called afucosylated H5L7BW
On to B1, for which the “kd ratio (H5L7BW against H5L7)” value in test [1] turned out to be 1.12. In test [2], the Kd (commonly the free concentration of one partner at which half of the binding sites on the other are occupied at equilibrium, for simple one-to-one binding) turned out to be 0.021 nM. Further, in test [3], the equilibrium dissociation constant (Kd) was 0.024 nM. Besides, the “KD ratio (H5L7BW against H5L7)” value in test [4] came out at 1.05. Further, in test [5], the “EC50, depletion of antigen specific CD4 T cells by ADCC (primary human T cells, autologous NK cells)” value is 14 pg/mL and 3.4 ng/mL; the “EC50, depletion of antigen specific LAG-3 positive CD8 T cells by ADCC” value was 0.122 ng/mL and 17.5 ng/mL. In addition, the koff – broadly, a measure of how fast the partners let go of each other – in test [6] is 0.00441 s⁻¹.
